Here are results for one molecule from paper PMC8763658.

This test concerns the target MUC1 mucin (tumor‐associated MUC1) on human cancer cells (human (endogenous in T47D, A549, MCF-7)) (UniProt P15941).
Sequence of UniProt P15941 (P15941 24-1255, stated change not applied): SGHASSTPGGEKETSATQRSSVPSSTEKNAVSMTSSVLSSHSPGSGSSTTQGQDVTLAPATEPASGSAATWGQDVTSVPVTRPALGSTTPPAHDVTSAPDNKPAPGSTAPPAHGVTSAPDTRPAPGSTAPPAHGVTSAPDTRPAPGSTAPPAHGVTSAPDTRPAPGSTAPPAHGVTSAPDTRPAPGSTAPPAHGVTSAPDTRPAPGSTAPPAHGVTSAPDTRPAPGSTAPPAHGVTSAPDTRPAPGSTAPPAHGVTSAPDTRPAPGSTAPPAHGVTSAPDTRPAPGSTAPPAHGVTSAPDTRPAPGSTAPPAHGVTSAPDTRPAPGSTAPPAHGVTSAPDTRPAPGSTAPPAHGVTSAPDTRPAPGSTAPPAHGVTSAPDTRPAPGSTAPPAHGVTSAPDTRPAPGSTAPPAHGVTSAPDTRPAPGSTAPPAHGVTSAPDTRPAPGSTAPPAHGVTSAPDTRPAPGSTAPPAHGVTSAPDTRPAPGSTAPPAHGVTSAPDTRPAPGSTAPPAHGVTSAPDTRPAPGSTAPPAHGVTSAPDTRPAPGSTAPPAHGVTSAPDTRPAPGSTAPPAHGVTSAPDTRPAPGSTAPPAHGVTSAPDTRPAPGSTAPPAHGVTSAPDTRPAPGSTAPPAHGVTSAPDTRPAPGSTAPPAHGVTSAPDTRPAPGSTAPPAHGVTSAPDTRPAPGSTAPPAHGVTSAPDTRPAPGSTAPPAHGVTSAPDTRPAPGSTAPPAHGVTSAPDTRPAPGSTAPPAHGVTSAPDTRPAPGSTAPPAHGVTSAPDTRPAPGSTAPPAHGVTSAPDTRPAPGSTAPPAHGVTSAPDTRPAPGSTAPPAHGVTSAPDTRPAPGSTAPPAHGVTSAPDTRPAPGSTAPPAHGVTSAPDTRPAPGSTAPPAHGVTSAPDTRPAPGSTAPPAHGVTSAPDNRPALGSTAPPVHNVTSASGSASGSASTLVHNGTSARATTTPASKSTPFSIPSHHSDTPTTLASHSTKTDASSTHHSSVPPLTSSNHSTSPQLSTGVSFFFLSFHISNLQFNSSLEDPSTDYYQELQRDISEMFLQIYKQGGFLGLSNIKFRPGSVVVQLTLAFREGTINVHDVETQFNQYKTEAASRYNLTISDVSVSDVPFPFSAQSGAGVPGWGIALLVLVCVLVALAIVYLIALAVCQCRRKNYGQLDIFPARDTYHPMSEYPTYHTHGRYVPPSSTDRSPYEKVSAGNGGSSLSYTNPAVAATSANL

B1: recombinant anti‐MUC1 nanobody (VHH)
VHH: EVQLVESGGGLVQPGGSLRLSCAASGFTFDDYGMSWVRQAPGKWLEWVSDISWNGGSTYYADSVKGRFTISRDNAENTLYLQMNSLKPDDTAVYYCAKMGEGGWGANDYWGQGTQVTVSS
Molecule B1 registered an MTT viability assay, A549 cells, 48 h, IC50 of growth inhibition of 14.3 nM; an MTT viability assay, MCF7 cells, 48 h, IC50 of growth inhibition of 7 nM; an MTT viability assay, MDA‐MB‐231 cells, 48 h, IC50 of growth inhibition of 10 nM; an MTT viability assay, SKBR3 cells, IC50 of growth inhibition of 4.16 nM. Moreover, the MTT viability assay, SW742 cells, 48 h, IC50 of growth inhibition was found to be 7.2 nM and the MTT viability assay, T47D cells, 48 h, IC50 of growth inhibition stood at 1.2 nM.
